Experiments:
HLA-B*27:05 = assay: IEDB peptide-MHC binding, purified MHC/competitive/fluorescence; filed as Kd, often an IC50 or EC50 that approximates it; ≥ and ≤ were set here for values at or beyond the usual limits of such assays
HLA-B*15:02 = assay: as above
HLA-C*03:03 = assay: IEDB peptide-MHC binding, purified MHC/direct/fluorescence; filed as Kd, often an IC50 or EC50 that approximates it; ≥ and ≤ were set here for values at or beyond the usual limits of such assays
HLA-C*05:01 = assay: as above
HLA-A*26:01 [1] = assay: IEDB peptide-MHC binding, purified MHC/competitive/fluorescence; filed as Kd, often an IC50 or EC50 that approximates it; ≥ and ≤ were set here for values at or beyond the usual limits of such assays; conditions: source organism: Homo sapiens
HLA-B*15:01 = assay: as above; conditions: source organism: Homo sapiens
HLA-B*18:01 = assay: as above; conditions: source organism: Homo sapiens
HLA-B*27:03 = assay: as above; conditions: source organism: Homo sapiens
HLA-B*39:01 = assay: as above; conditions: source organism: Homo sapiens
HLA-B*46:01 = assay: as above; conditions: source organism: Homo sapiens
HLA-B*51:01 = assay: as above
HLA-B*57:01 = assay: as above; conditions: source organism: Homo sapiens
HLA-C*07:02 = assay: IEDB peptide-MHC binding, purified MHC/direct/fluorescence; filed as Kd, often an IC50 or EC50 that approximates it; ≥ and ≤ were set here for values at or beyond the usual limits of such assays
HLA-A*02:01 [2] = assay: IEDB peptide-MHC binding, purified MHC/competitive/fluorescence; filed as Kd, often an IC50 or EC50 that approximates it; ≥ and ≤ were set here for values at or beyond the usual limits of such assays; conditions: source organism: Vaccinia virus WR
HLA-A*69:01 = assay: IEDB peptide-MHC binding, purified MHC/direct/fluorescence; filed as Kd, often an IC50 or EC50 that approximates it; ≥ and ≤ were set here for values at or beyond the usual limits of such assays; conditions: source organism: Mycobacterium tuberculosis
HLA-A*26:02 = assay: as above
HLA-A*68:23 = assay: IEDB peptide-MHC binding, purified MHC/competitive/fluorescence; filed as Kd, often an IC50 or EC50 that approximates it; ≥ and ≤ were set here for values at or beyond the usual limits of such assays
HLA-B*15:42 = assay: as above
HLA-B*45:06 = assay: as above
HLA-B*83:01 = assay: as above
HLA-C*14:02 = assay: as above
HLA-B*07:02 = assay: as above; conditions: source organism: Influenza A virus (A/Kayano/57(H2N2))
HLA-B*35:01 = assay: as above; conditions: source organism: Influenza A virus (A/Kayano/57(H2N2))
HLA-A*01:01 = assay: as above; conditions: source organism: Staphylococcus aureus subsp. aureus N315
HLA-B*48:01 = assay: as above
HLA-A*02:01 [3] = assay: IEDB peptide-MHC binding, purified MHC/direct/fluorescence; filed as Kd, often an IC50 or EC50 that approximates it; ≥ and ≤ were set here for values at or beyond the usual limits of such assays; conditions: source organism: Orthohantavirus hantanense
HLA-A*02:11 = assay: as above; conditions: source organism: Hantaan virus Q32
HLA-A*02:12 = assay: as above; conditions: source organism: Hantaan virus Q32
HLA-A*02:19 = assay: as above; conditions: source organism: Hantaan virus Q32
HLA-A*26:01 [4] = assay: as above; conditions: source organism: Vibrio vulnificus CMCP6
[5] = source organism: Influenza A virus (A/Kayano/57(H2N2))
[6] = source organism: Staphylococcus aureus subsp. aureus N315

## LRAAIELPL
HLA-B*27:05; source organism: Mycobacterium tuberculosis H37Ra
  Kd: 160 nM

## EQRAGYQAF
HLA-B*15:02; source organism: Vibrio vulnificus YJ016
  Kd: 117 nM

## SQDDNYFTL
HLA-C*03:03; source organism: Giardia lamblia P15
  Kd: 266 nM

## LTDSSTLLV
HLA-C*05:01; source organism: Homo sapiens
  Kd: 8 nM
HLA-A*26:01 [1]
  Kd: ≥ 20000 nM
HLA-B*15:01
  Kd: ≥ 20000 nM
HLA-B*18:01
  Kd: ≥ 20000 nM
HLA-B*27:03
  Kd: ≥ 20000 nM
HLA-B*39:01
  Kd: ≥ 20000 nM
HLA-B*46:01
  Kd: ≥ 20000 nM
HLA-B*51:01; source organism: Homo sapiens
  Kd: ≥ 20000 nM
HLA-B*57:01
  Kd: ≥ 20000 nM

## SQMPTSLNF
HLA-B*15:02; source organism: Escherichia coli str. K-12 substr. MG1655
  Kd: 23.8 nM

## YGLERLAAM
HLA-C*07:02; source organism: human gammaherpesvirus 4
  Kd: 18 nM

## FLHESDPMV
HLA-C*03:03; source organism: Vaccinia virus WR
  Kd: ≥ 20000 nM
HLA-A*02:01 [2]
  Kd: 1.7 nM

## HYNAFQWAI
HLA-C*07:02; source organism: Acanthisitta chloris
  Kd: 29 nM

## KRMGVQVQR
HLA-B*27:05; source organism: Influenza A virus (A/environment/Hong Kong/437-10/99 (H5N1))
  Kd: 99.8 nM

## ALMDYGFRV
HLA-A*69:01
  Kd: 42 nM
HLA-C*03:03; source organism: Mycobacterium tuberculosis variant bovis BCG str. Pasteur 1173P2
  Kd: ≥ 20000 nM

## LVALTLTSY
HLA-A*26:02; source organism: Yellow fever virus
  Kd: 180 nM

## RLPKDFVDL
HLA-A*68:23; source organism: Homo sapiens
  Kd: 67.7 nM
HLA-B*15:42; source organism: Homo sapiens
  Kd: ≥ 5000 nM
HLA-B*45:06; source organism: Homo sapiens
  Kd: ≥ 5000 nM
HLA-B*83:01; source organism: Homo sapiens
  Kd: ≥ 5000 nM
HLA-C*14:02; source organism: Homo sapiens
  Kd: 112 nM

## LPFHNVHPL
HLA-C*05:01; [5]
  Kd: ≥ 20000 nM
HLA-C*07:02; [5]
  Kd: 2490 nM
HLA-B*07:02
  Kd: 5.6 nM
HLA-B*35:01
  Kd: ≤ 0.1 nM
HLA-B*51:01; [5]
  Kd: 202 nM

## YTIGIGAFY
HLA-A*01:01
  Kd: 1.5 nM
HLA-A*68:23; [6]
  Kd: ≤ 0.1 nM
HLA-B*15:42; [6]
  Kd: ≥ 5000 nM
HLA-B*45:06; [6]
  Kd: ≥ 5000 nM
HLA-B*83:01; [6]
  Kd: ≥ 5000 nM
HLA-C*14:02; [6]
  Kd: 9.4 nM

## WLVNTYQNY
HLA-B*15:02; source organism: Cryptosporidium parvum
  Kd: 80.2 nM

## MQALGHPIL
HLA-B*48:01; source organism: Photobacterium angustum S14
  Kd: 175 nM

## FMFNDLLKL
HLA-A*02:01 [3]
  Kd: ≤ 1 nM
HLA-A*02:11
  Kd: ≤ 1 nM
HLA-A*02:12
  Kd: 3 nM
HLA-A*02:19
  Kd: 15 nM
HLA-C*03:03; source organism: Orthohantavirus
  Kd: 1250 nM

## VQHAPQVSL
HLA-B*48:01; source organism: Giardia lamblia ATCC 50803
  Kd: 137 nM

## HVIASMRHF
HLA-A*26:01 [4]
  Kd: 2 nM
HLA-A*26:02; source organism: Vibrio vulnificus CMCP6
  Kd: ≤ 1 nM
